From patent US9314499

Biological target: T1, Histidine-tagged recombinant human Annexin A2
T1 chain: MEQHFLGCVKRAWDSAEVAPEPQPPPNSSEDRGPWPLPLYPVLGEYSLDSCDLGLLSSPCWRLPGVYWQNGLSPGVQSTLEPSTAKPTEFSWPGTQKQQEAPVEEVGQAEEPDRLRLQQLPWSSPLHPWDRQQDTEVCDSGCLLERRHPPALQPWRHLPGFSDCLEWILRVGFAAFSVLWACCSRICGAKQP

B1: tissue plasminogen activator (protein)
chain: SYQVICRDEKTQMIYQQHQSWLRPVLRSNRVEYCWCNSGRAQCHSVPVKSCSEPRCFNGGTCQQALYFSDFVCQCPEGFAGKCCEIDTRATCYEDQGISYRGTWSTAESGAECTNWNSSALAQKPYSGRRPDAIRLGLGNHNYCRNPDRDSKPWCYVFKAGKYSSEFCSTPACSEGNSDCYFGNGSAYRGTHSLTESGASCLPWNSMILIGKVYTAQNPSAQALGLGKHNYCRNPDGDAKPWCHVLKNRRLTWEYCDVPSCSTCGLRQYSQPQFRIKGGLFADIASHPWQAAIFAKHRRSPGERFLCGGILISSCWILSAAHCFQERFPPHHLTVILGRTYRVVPGEEEQKFEVEKYIVHKEFDDDTYDNDIALLQLKSDSSRCAQESSVVRTVCLPPADLQLPDWTECELSGYGKHEALSPFYSERLKEAHVRLYPSSRCTSQHLLNRTVTDNMLCAGDTRSGGPQANLHDACQGDSGGPLVCLNDGRMTLVGIISWGLGCGQKDVPGVYTKVTNYLDWIRDNMRP
  tPA-converted plasmin generation (in vitro plasmin activity assay, fluorogenic substrate D-Val-Leu-Lys-AMC): a combination of rA2 (5 µg/ml) and tPA (2.5 µg/ml) significantly amplified tPA-converted plasmin generation
